In the Immune Epitope Database (IEDB):
pIC50: −log10 of the molar value.

Key:
Test in all cases: IEDB peptide-MHC binding, purified MHC/competitive/radioactivity; ≥ and ≤ were set here for values at or beyond the usual limits of such assays
Conditions in all cases: source organism: Bordetella pertussis
[1] = target: HLA-B*07:02
[2] = target: HLA-B*44:03
[3] = target: HLA-B*35:01
[4] = target: HLA-A*02:01
[5] = target: HLA-B*53:01
[6] = target: HLA-B*57:01

Question: With YATNPQTQL as the sequence, how does the pIC50 [1] read?
Answer: 4.16

Question: How did the pIC50 [2] turn out when KEDVDAAQI was run?
Answer: 4.47

Question: DAKHDLTVT was tested. Which pIC50 [3] did it give?
Answer: 4.16

Question: How did the pIC50 [2] turn out when YEYSKGPKL was run?
Answer: 4.32

Question: AGLAGPSAV was tested. Which pIC50 [4] did it give?
Answer: ≤ 4.11

Question: How did the pIC50 [3] turn out when FALYDGTYL was run?
Answer: 4.68

Question: With DENGKPQTY as the sequence, how does the pIC50 [2] read?
Answer: 4.94

Question: GLDVQQGTV was tested. Which pIC50 [4] did it give?
Answer: 4.22

Question: How did the pIC50 [5] turn out when FAISAYALK was run?
Answer: 5.35

Question: How did the pIC50 [5] turn out when TGDGGGHTD was run?
Answer: 4.16

Question: What does the source list for TPLGSLFAI?
Answer: pIC50 [3]: 5.87; pIC50 [5]: 5.09

Question: How did the pIC50 [4] turn out when QSIVEAPEL was run?
Answer: 4.34

Question: AESNALSKR was tested. Which pIC50 [2] did it give?
Answer: 4.35

Question: With LAAVLVNPH as the sequence, how does the pIC50 [3] read?
Answer: 4.16

Question: How did the pIC50 [6] turn out when KAGTIAAPW was run?
Answer: 6.53

Question: With YEYIWGLYP as the sequence, how does the pIC50 [2] read?
Answer: 5.08
